Reference: patent publication US20250127942A1 (MEDICOVESTOR, published 2025)

Target: T1, recombinant 6His-Sp17 protein (human, UniProt Q15506 1-151, limits assumed)
T1 construct: The species is not restated for this recombinant protein; not shown: 6His tag
T1 sequence (looked up): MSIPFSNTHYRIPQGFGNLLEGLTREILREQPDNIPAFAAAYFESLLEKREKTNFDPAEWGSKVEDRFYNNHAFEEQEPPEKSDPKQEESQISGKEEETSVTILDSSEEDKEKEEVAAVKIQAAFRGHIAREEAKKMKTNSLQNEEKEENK
Assay: SPR (Biacore T200), 6His-Sp17 at 6.25-300 nM as analyte
Text: The lines correspond, from highest to lowest, to fitted cycles for 300 nanomolar, 100 nanomolar, 50 nanomolar, 25 nanomolar, 12.5 nanomolar, and 6.25 nanomolar concentrations of 6His-Sp17.
The nucleotide sequences encoding the VH and VL regions of Example 1 were cloned into a mouse IgG2a heavy chain gene and a mouse kappa light chain gene, respectively, and expressed in CHO—S cells to produce a mouse-human chimeric antibody, which was named chAB2. Successful generation of the antibody was confirmed by SDS-PAGE and western blotting using anti-mouse heavy and light chain antibodies and recombinant Sp17 protein (FIGS. 2 & 3). The chAB2 antibody was reactive to mouse surface Sp17 protein expressed on the mouse ovarian cancer cell line ID8 (FIG. 4).

Kd: 2.07 nM
koff: 0.00013 s⁻¹
kon: 62600 M⁻¹ s⁻¹
B1: mouse-human chimeric anti-Sp17 IgG2a/kappa monoclonal antibody chAB2 (antibody, V domains shown)
VH: QVQLQQSGAEVKKPGSSVKVSCKASGGTFSSYAISWVRQAPGQGLEWMGRIIPILGIANYAQKFQGRVTITADKSTSTAYMELSSLRSEDTAVYYCARPSEEVVAAYGAFDIWGQGTTVTVSS
VL: EIVLTQSPLSLPVRPGEPASISCRASQSLLRSDGFNYLDWYLQKPGQSPQLLVYLGSNRASGVPDRFSGSGSGTDFTLKISRVEAEDVGVYYCMQAVQTPYIFGQGTKLEIK
notes: also called anti-Sp17 antibody chAB2; chimeric monoclonal antibody (chAB2); not shown: mouse IgG2a heavy chain constant region; mouse kappa light chain constant region
